These results are taken from patent US20200270704A1 (University of Texas, published 2020).

The assay has as its target T1, NY-ESO-1 (human, UniProt P78358 1-180, limits assumed).
T1 construct: Tumor antigen; coated on ELISA plates (ThermoFisher or RayBiotech) and amine-coupled to a CM5 chip for SPR (RayBiotech); also called NY-ESO-1/CTAG1B
Put plainly: SPR, NY-ESO-1 immobilised on CM5, antibody as analyte, bivalent analyte model. On the technique in general: Surface plasmon resonance follows binding to a sensor surface in real time, without labels.

T1 sequence (P78358 whole entry): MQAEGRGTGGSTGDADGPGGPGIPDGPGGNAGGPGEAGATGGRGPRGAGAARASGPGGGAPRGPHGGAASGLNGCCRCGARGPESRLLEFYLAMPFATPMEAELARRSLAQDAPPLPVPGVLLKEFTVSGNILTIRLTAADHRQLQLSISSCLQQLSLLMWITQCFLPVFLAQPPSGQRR
Experimental: Binding experiments were performed in HBS-EP buffer (10 mM HEPES pH 7.4, 150 mM NaCl, 3.4 mM EDTA, and 0.005% P20 surfactant). Serially diluted antibodies were injected at a flow rate of 30 μL/min for 60 s with a dissociation time of 5 min. The chip was regenerated after each run by sequential injection of 10 mM glycine, pH 3, and 500 mM arginine, pH 8 for 1 min each. For each run, a bovine serum albumin (BSA)-coupled surface was used to subtract non-specific receptor binding.

B1: BC2-3G1 (antibody, V domains shown)
VH: QVQLQQSGPGLVKPSQTLSLTCAISGDSVSSNSAAWNWIRQSPSRGLEWLGRTYYRSKWYNDYAVSVKSRITINPDTSKNQFSLQLNSVTPEDTAVYYCARDLGIAAAGDFDYWGQGTLVTVSS
VL: EIVLTQSPATLSLSPGERATLSCRASQGVSSYLAWYQQKPGQAPRLLIYDASNRATGIPARFSGSGSGTDFTLTISSLEPEDFAVYYCHQGSNWPTFGGGTKVEI
notes: also called BC2-3G lineage member 1; BC2-3G sub-lineage 1
With B1, the binding result is reported as “binds”.
